Laboratory results from patent US9097721B2, “Compositions comprising engineered phosphothreonine affinity reagents, methods of making, and methods of use” (The Board of Trustees of the University of Illinois, priority 2012, dated 2015).
Where “and” joins values, the source holds several entries; their conditions need not be identical. Equal entries are not always repeated. Entries after “also recorded” stand apart in the source; their conditions may differ.

Assays:
Rad9-pT peptide [1] = biological target: T1, Rad9-pT peptide (Saccharomyces cerevisiae, UniProt P14737); test: Phage ELISA of phage-displayed FHA1 domains; assay type: binding, yeast; settings: M13 protein III fusion, DsbA signal sequence
T1 construct: host or cells: chemical synthesis
Experimental: To amplify the phage particles displaying the recombinant FHA1 variants, TG1 bacterial cells (5 mL; Stratagene) harboring the phagemid DNA were infected at mid-log (OD600nm=0.5-0.6) with M13K07 helper phage (New England Biolabs) at a multiplicity of infection (MOI) of 20 for 1 h at 37° C. at 150 rpm. Infected cells were centrifuged, and the pellet was resuspended in fresh Luria Bertani medium (LB: 10 g Tryptone, 5 g Yeast extract, and 10 g NaCl per liter) supplemented with 50 μg/mL carbenicillin and 50 μg/ml kanamycin, and phage were amplified overnight at 30° C. at 250 rpm. All of the phage ELISA steps were performed at room temperature. Biotinylated peptides (100 μL, 5 μg/mL) were immobilized on Nunc MaxiSorp flat-bottom 96 well plates (Thermo Fisher Scientific) via NeutrAvidin™ Biotin binding protein (100 μL, 10 μg/mL; Thermo Fisher Scientific) and blocked with 2% skim milk in 1×PBS (200 μL per well). After washing with Phosphate Buffered Saline (PBS: 0.14 M Sodium Chloride, 0.003 M Potassium Chloride, 0.002 M Potassium Phosphate, and 0.01 M Sodium Phosphate), the wells were incubated with the phage supernatant (100 μL of phage diluted 1:2 with PBS containing 0.1% Tween 20 (PBST)) for 1 h and washed three times with PBST. The binding phage were detected using anti-M13 antibody conjugated to horse radish peroxidase (HRP) (GE Healthcare) diluted 1:5000 with PBST. After washing away the unbound antibody, the chromogenic substrate for HRP; 2,2′-Azinobis (3-ethylbenzothiazoline-6-Sulfonic Acid) diammonium salt (Thermo Fisher Scientific), supplemented with hydrogen peroxide was added (100 μL per well), and the absorbance of the green colored complex was measured at 405 nm on POLARstar OPTIMA microtiter plate reader (BMG Labtech).

Rad9-pT peptide [2] = biological target: T1, Rad9-pT peptide; test: ELISA of GST fusions of FHA1 domains; assay type: binding, yeast; settings: expressed in bacterial cytoplasm as GST fusion
Experimental: For production of FHA1-GST fusion protein, BL21 DE3 cells (10 mL; Stratagene) harboring the expression vector was grown overnight at 30° C. using the Overnight Express™ Autoinduction System 1 (Novagen). The next day, cells were lysed using BugBuster® 10× Protein Extraction Reagent (Novagen) following the manufacturer's instructions. Cell lysate (100 μL diluted 1:5 with PBST) was incubated with the biotinylated peptides as described above and detected using anti-GST antibody conjugated to HRP (diluted 1:10,000 with PBST; GE Healthcare).

[3] = biological target: T2, pT peptide (Rad 9-pT: SLEVpTEADATFYAKK) (Saccharomyces cerevisiae, UniProt P14737); test: Isothermal titration calorimetry (ITC); assay type: binding, yeast; settings: in solution by ITC; FHA1 domain 35 μM in cell
T2 construct: host or cells: chemical synthesis
Experimental: A fixed amount (10 μL) of the pT peptide (Rad 9-pT: SLEVpTEADATFYAKK (SEQ ID NO:9); 500 μM) was injected from the syringe into the sample cell containing the FHA1 domain (35 μM). […] Each measurement was repeated three times.
The affinity of the G2 variant and the WT FHA1 domain to the pT peptide (SLEVpTEADATFYAKK) (SEQ ID NO:9) was determined by ITC (FIG. 12). The sample cell contained the purified FHA1 domains (35 μM) and the injection syringe was filled with the pT peptide (350 μM). […] The FHA1 domains bound to the pT peptide with a stoichiometry of 1:1, and the ITC graph was fitted by the single site binding model.

[4] = biological target: T3, cognate pT peptide (Rad9-pT) (Saccharomyces cerevisiae, UniProt P14737); test: FTS assay, Tm shift in the presence of the cognate pT peptide; assay type: binding, yeast
T3 construct: host or cells: chemical synthesis
Experimental: (§1) The FTS assay was performed on a MxPro-Mx3005P instrument (Stratagene) following the protocol described by Giuliani et al (Giuliani et al. (2008) Biochemistry 47, 13974-84). It is a real-time assay using the SYBR® Green experiment setting with dissociation curve. The default FRROX filter set was used with an excitation wavelength of 492 nm and emission wavelength of 610 nm. FHA1 domains diluted with PBS to 2× final concentration (i.e. 2 μM and 8 μM) were mixed with 10×SYPRO® Orange protein gel stain (Invitrogen; 5000× concentration in DMSO) to give a final dye concentration of 10×. Then, to the protein wells only, 10 μL of the dye+protein mixture was added along with 10 μL of 1×PBS buffer. In other wells, 10 μL of either the pT peptide or its non-phosphorylated form (diluted to 2× final concentration with PBS, i.e. 100 μM and 500 μM) was added to 10 μL of dye+protein mixture. The final reaction volume was 20 μL with final concentrations of 1 μM or 4 μM of FHA1 domains, 50 μM or 250 μM of pT and non-phosphorylated peptides and 5× final concentration of the SYPRO® Orange. The assay was performed in duplicate in 96 well white PCR plates (BIO-Rad) covered with optically clear Microseal® ‘B’ Film (Bio-Rad) and heated from 25° C. to 95° C. and the melting curve was obtained with fluorescence (R) values plotted on the Y-axis and increasing temperature (° C.) on the X-axis. The mid-point of the curve gives the melting temperature (Tm), which shifts to a higher temperature in the presence of the pT peptide.
(§2) The Tm values of FHA1 variants were determined by FTS assay (Giuliani et al. (2008) Biochemistry 47, 13974-84). A representative Tm curve for the G2 variant at 1 μM concentration is shown (solid squares), alone and in the presence of the pT peptide (FIG. 11). […] The Tm values of the thermally stable variants (along with WT and D2 variant) at 1 μM and 4 μM concentration, along with the Tm shift in the presence of two different concentrations (50 μM and 250 μM) of the pT peptide, are listed in Table S3.

[5] = Fluorescence-based thermal shift (FTS) assay, melting temperature; assay type: physicochemical; settings: for thermal stability compared with the starting D2 domain: isolated after selection with library heated to 50° C.; for Tm (° C.): mid-point of melting curve
Experimental: as §1
To evaluate the thermal stability of the D2 variant, phage particles displaying the D2 variant were heated at various temperatures (30° C., 37° C., 50° C., 60° C., 70° C., 80° C., and 95° C.) prior to incubation with the cognate pT peptide (Rad9-pT) and the non-phosphorylated form of the same peptide (Rad9-T). […] (FIG. 8). The D2 variant (purified six-his tagged protein) was mixed with SYPRO orange dye with or without the Rad9-pT-containing peptide and heated from 25° C. to 95° C. in a real-time PCR experiment known as the Fluorescence-based thermal shift (FTS) assay^36. In this assay, initially, the fluorescence of SYPRO orange dye is quenched in the aqueous environment of a folded protein, but as the protein starts to unfold upon heating, the dye interacts with the hydrophobic core of the protein and its fluorescence increases. Therefore, an increase in fluorescence of the dye is directly proportional to protein unfolding, until a temperature (referred to as Tm here) is reached at which the dye fluorescence decreases due to aggregation and precipitation of the protein. The melting temperature (Tm) of the D2 variant was determined by fluorescence-based thermal shift (FTS) assay to be approximately 5° C. lower than the Tm of the WT FHA1 domain. To improve the thermal stability of the D2 variant, affinity selection was carried out by heating the phage library displaying D2 variants at 50° C. prior to incubation with the pT peptide ligand to favor the isolation of variants that remained folded and functional above 50° C.
as §2
The Tm (temperature at which 50% of the protein is unfolded) of the protein domain variants was determined by a fluorescence-based thermal shift assay (Giuliani et al. (2008) Biochemistry 47, 13974-84). The proteins were mixed with SYPRO orange dye, and heated from 25° C. to 95° C. on a real-time thermocycler. […]

[6] = tested on: non-phosphorylated form of the same peptide; test: FTS assay, Tm shift in the presence of the non-phosphorylated peptide; assay type: binding, yeast
Experimental: as §1, with “The final reaction volume was 20 μL with final concentrations of 1 μM or 4 μM of FHA1 domains, 50 μM or 250 μM of pT and non-phosphorylated peptides and 5× final concentration of the SYPRO® Orange.” left out, “The mid-point of the curve gives the melting temperature (Tm), which shifts to a higher temperature in the presence of the pT peptide.” left out
The Tm values of FHA1 variants were determined by FTS assay (Giuliani et al. (2008) Biochemistry 47, 13974-84). […]

[7] = 250 μM pT peptide, protein 1 μM
[8] = 250 μM pT peptide, protein 4 μM

| Molecule | binding to Rad9-pT peptide when phage-displayed (Rad9-pT peptide [1]) | binding of GST fusion to Rad9-pT peptide (Rad9-pT peptide [2]) | Kd [3] | Tm shift (° C.) in the presence of pT peptide ([4]; 50 μM pT peptide, protein 1 μM) [°C] | Tm shift (° C.) in the presence of pT peptide ([4]; 50 μM pT peptide, protein 4 μM) [°C] | Tm shift (° C.) in the presence of pT peptide [4, 7] [°C] | Tm shift (° C.) in the presence of pT peptide [4, 8] [°C] | thermal stability compared with the starting D2 domain [5] | Tm (° C.) ([5]; protein concentration 1 μM) [°C] | Tm (° C.) ([5]; protein concentration 4 μM) [°C] | shift in the Tm [6] |
| --- | --- | --- | --- | --- | --- | --- | --- | --- | --- | --- | --- |
| 3C-3S: FHA1 domain variant with three cysteines mutated to serine (C34S, C38S, C154S) (protein, left off: a dimerising Fc or GST; large carriers; small tags and cut ends) MENITQPTQQSTQATQRFLIEKFSQEQIGENIVSRVISTTGQIPIRDLSADISQVLKEKRSIKKVWTFGRNPACDYHLGNISRLSNKHFQILLGEDGNLLLNDISTNGTWLNGQKVEKNSNQLLSQGDEITVGVGVESDILSLVIFINDKFKQSLEQNKVDRIRSNLKNT | did not bind; also recorded: remained non-functional | bound specifically; also recorded: showed specific binding | – | – | – | – | – | – | – | – | – |
| 4C-4S: FHA1 variant with all four cysteines mutated to serines (protein, left off: a dimerising Fc or GST; large carriers; small tags and cut ends, FHA1 variant with all four cysteines mutated to serines) MENITQPTQQSTQATQRFLIEKFSQEQIGENIVSRVISTTGQIPIRDLSADISQVLKEKRSIKKVWTFGRNPASDYHLGNISRLSNKHFQILLGEDGNLLLNDISTNGTWLNGQKVEKNSNQLLSQGDEITVGVGVESDILSLVIFINDKFKQSLEQNKVDRIRSNLKNT | did not bind; also recorded: remained non-functional | bound specifically; also recorded: showed specific binding | – | – | – | – | – | – | – | – | – |
| G2: thermally stable FHA1 variant of D2, mutations T15A, L48F, N121Y (protein) MENITQPTQQSTQAAQRFLIEKFSQEQIGENIVFRVISTTGQIPIRDFSADISQVLKEKRSIKKVWTFGRNPACDYHLGNISRLSNKHFQILLGEDGNLLLNDISTNGTWLNGQKVEKNSYQLLSQGDEITVGVGVESDILSLVIFINDKFKQSLEQNKVDRIRSNLKNTHHHHHH | – | – | ~890 nM and 890 nM | 1.2 | 0.5 | 2.75 | 2.5 | more thermally stable | 73.75 | 74.9 | No shift |
| A12: thermally stable FHA1 variant of D2, mutations C74S, G94D, E129V, N158I (protein) MENITQPTQQSTQATQRFLIEKFSQEQIGENIVFRVISTTGQIPIRDLSADISQVLKEKRSIKKVWTFGRNPASDYHLGNISRLSNKHFQILLDEDGNLLLNDISTNGTWLNGQKVEKNSNQLLSQGDVITVGVGVESDILSLVIFINDKFKQSLEQIKVDRIRSNLKNTHHHHHH | – | – | – | 1.25 | 1 | 2 | 2.4 | more thermally stable | 66 | 64 | – |
